Like-named read-outs stand apart in the source and are kept apart here.
What was measured:
[1] = biological target: T1, Human CD3 epsilon (CD3epsilon) protein (His Tag) (human, UniProt P07766 23-126); assay: ELISA, antigen coated on plate
T1 construct: extracellular domain; Bought protein; also called recombinant human CD3epsilon ECD; not shown: His tag

[2] = biological target: T2, mouse CD3epsilon protein (mouse, UniProt P22646 22-108, limits assumed); assay: ELISA, antigen coated on plate
[3] = biological target: T3, Cynomolgus Monkey CD3 epsilon protein (Cynomolgus monkey, UniProt Q95LI5 22-117); assay: ELISA, antigen coated on plate
T3 construct: Bought protein; also called Cyno-Monkey CD3epsilon
T3 sequence (looked up): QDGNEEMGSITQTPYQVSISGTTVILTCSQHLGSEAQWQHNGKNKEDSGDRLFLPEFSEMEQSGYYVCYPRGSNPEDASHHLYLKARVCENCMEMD

[4] = biological target: T4, Human CD3 delta (CD3 delta) protein (His Tag) (human, UniProt P04234 22-105); assay: ELISA, antigen coated on plate, HRP-labelled 2nd antibody
T4 construct: extracellular domain; Bought protein; not shown: His tag
Description: (§1) Human CD3epsilon, CD3delta and CD3gamma proteins were pre-coated in 96-well plates, respectively. The binding affinity of eight mAbs at various concentrations to these three different CD3 protein extracellular domain was detected by corresponding HRP labeled 2nd antibodies. The binding EC₅₀ (concentration of the test antibody when reaching half maximum binding) were analyzed by using GraphPad Prism software equation: Nonlinear regression (curve fit)—log (agonist) vs. response-Variable slope.

[5] = biological target: T5, Human CD3 Gamma (CD3gamma) protein (human, UniProt P09693 23-116); assay: as above
T5 construct: extracellular domain; Bought protein
Description: as §1

[6] = biological target: T1, Human CD3 epsilon (CD3epsilon) protein …; assay: as above
Description: as §1

[7] = biological target: T6, human CD3 expressed on cells (Jurkat cells; human CD4 T cells) (human, UniProt P07766 23-207); assay: flow cytometry on Jurkat cells
T6 construct: whole, on cells; also called human CD3 receptor on T cell surface; human CD3 expressing cells (Jurkat cells)
Description: Various concentrations of testing mAbs were added to Jurkat cells, and then the binding activity of mAbs onto the surface of cells was detected by 2nd antibody-FITC. OKT3 was used as the positive control. The stained cells were analyzed by using a BD Biosciences FACSCanto II instrument and Flow Jo Version software. The binding EC₅₀ were calculated by using GraphPad Prism software equation: Nonlinear regression (curve fit)—log (agonist) vs. response-Variable slope.

[8] = biological target: T6, human CD3 expressed on cells (Jurkat …); assay: flow cytometry on human CD4 T cells
[9] = biological target: T6, human CD3 expressed on cells (Jurkat …); assay: flow cytometry on Jurkat cells, one site saturation fit; design: Best fit-Bmax: unit not given here
[10] = biological target: T3, Cynomolgus Monkey CD3 epsilon protein; assay: ELISA, antigen coated on plate; remark: listed apart in the source
[11] = biological target: T1, Human CD3 epsilon (CD3epsilon) protein …; assay: ELISA, antigen coated on plate; remark: listed apart in the source
[12] = biological target: T3, Cynomolgus Monkey CD3 epsilon protein; assay: ELISA, antigen coated on plate; remark: listed apart in the source
[13] = biological target: T4, Human CD3 delta (CD3 delta) protein …; assay: ELISA, antigen coated on plate
[14] = biological target: T5, Human CD3 Gamma (CD3gamma) protein; assay: ELISA, antigen coated on plate
[15] = biological target: T2, mouse CD3epsilon protein; assay: ELISA, antigen coated on plate; remark: listed apart in the source

T1 sequence (P07766 23-126): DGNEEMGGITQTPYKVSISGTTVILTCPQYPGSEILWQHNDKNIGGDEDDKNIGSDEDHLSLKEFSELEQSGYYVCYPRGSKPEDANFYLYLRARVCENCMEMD
T6 sequence (P07766 23-207): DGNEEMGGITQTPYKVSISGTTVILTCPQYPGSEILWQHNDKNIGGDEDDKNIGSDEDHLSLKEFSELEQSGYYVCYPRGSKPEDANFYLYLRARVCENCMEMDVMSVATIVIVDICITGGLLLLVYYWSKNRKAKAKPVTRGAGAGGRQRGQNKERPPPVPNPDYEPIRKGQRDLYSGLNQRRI
T5 sequence (P09693 23-116): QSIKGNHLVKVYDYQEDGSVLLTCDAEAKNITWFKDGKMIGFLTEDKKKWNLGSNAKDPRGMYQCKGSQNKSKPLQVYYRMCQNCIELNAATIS
T4 sequence (P04234 22-105, stated change not applied): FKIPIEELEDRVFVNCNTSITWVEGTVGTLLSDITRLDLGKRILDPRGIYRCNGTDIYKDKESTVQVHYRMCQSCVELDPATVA
T2 sequence (P22646 22-108 limits assumed): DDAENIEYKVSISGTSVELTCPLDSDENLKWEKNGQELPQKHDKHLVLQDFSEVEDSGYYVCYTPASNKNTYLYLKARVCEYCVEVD

ELISA (A450) [1]: 2.76 A450 | ELISA (A450) [2]: 0.446 A450 | ELISA (A450) [3]: 2.81 A450 | ELISA (A450) [4]: 0.05 A450 | ELISA (A450) [5]: 0.05 A450 | ELISA (A450) [6]: 1.64 A450 | EC50 [7]: 6.91 nM | MFI (FACS) [7]: 2140 MFI | EC50 [8]: 3.51 nM | Best fit-Bmax [9]: 1.26e-10 | Kd [9]: 1.67 nM | EC50 [10]: 0.125 nM | EC50 [11]: 0.049 nM | EC50 [12]: 0.033 nM | binding result [13]: no binding | binding result [14]: no binding | binding result [15]: no binding
B1: WBP3311_2.166.48 (antibody, IgG2a, V domains shown)
VH: QVQLQQSGPELVKPGASVKIACKASGYSFTTYYIHWVKQRPGQGLEWIGWIFPGNDNIKYSEKFKGKATLTADTSSSTAYMQLSSLTSEDSAVYFCAIDSVSIYYFDYWGQGTTLTVSS
VL: DIVMSQSPSSLAVSAGEKVTMSCKSSQSLLNSRTRKNYLAWYQQKPGQSPKLLIYWASTRKSGVPDRFTGSGSGTDFTLTINSVQAEDLAVYYCTQSFILRTFGGGTKLEIK
notes: Mouse monoclonal antibody from hybridoma; also called W3311-2.166.48; W3311_2.166.48
